Assays:
mfNPR1-mFc [1] = biological target: T1, mfNPR1-mFc (monkey); assay: SPR, mAb captured, 25C
T1 construct: also called dimeric monkey NPR1
T1 chain: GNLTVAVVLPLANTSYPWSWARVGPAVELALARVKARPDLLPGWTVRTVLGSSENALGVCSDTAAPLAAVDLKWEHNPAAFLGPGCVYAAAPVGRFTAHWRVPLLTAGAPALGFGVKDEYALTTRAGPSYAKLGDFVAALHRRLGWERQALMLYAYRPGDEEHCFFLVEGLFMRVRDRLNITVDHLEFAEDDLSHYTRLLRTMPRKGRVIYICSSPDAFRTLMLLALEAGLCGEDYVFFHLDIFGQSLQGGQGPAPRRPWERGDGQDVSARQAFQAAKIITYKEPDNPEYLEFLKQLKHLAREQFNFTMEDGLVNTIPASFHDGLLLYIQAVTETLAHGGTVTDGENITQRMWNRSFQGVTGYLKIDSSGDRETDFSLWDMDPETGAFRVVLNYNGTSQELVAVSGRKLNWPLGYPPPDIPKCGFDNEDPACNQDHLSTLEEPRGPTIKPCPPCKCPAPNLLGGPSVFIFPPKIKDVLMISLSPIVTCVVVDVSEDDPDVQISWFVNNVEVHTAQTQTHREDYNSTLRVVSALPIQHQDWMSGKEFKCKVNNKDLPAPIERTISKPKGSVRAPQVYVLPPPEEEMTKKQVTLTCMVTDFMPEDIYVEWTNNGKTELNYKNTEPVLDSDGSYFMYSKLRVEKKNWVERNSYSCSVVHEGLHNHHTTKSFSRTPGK
Method: (§1) Equilibrium dissociation constant (KD) for different NPR1 reagents binding to purified anti-NPR1 monoclonal antibodies (mAbs) were determined using a real-time surface plasmon resonance based Biacore 4000 biosensor. All binding studies were performed in 10 mM HEPES, 150 mM NaCl, 3 mM EDTA, and 0.05% v/v Surfactant Tween-20, pH 7.4 (HBS-ET) running buffer at 25° C. and 37° C. The Biacore CM5 sensor chip surface was first derivatized by amine coupling with either mouse anti-human Fc specific mAb (GE Healthcare, #BR100839) or goat anti-human Fcy specific polyclonal antibody (Jackson ImmunoResearch Laboratories, #BR-1008-39) to capture anti-NPR1 mAbs.

[2] = biological target: T2, hNPR1-mFc:hANP or hNPR1-hFc:hANP complex (human, UniProt P01160 124-151); assay: SPR, mAb captured, 25C
T2 construct: also called human NPR1 complexed to ANP
Method: as §1

mfNPR1-mFc:hANP complex [3] = biological target: T3, mfNPR1-mFc:hANP complex (monkey; human, UniProt P01160 124-151); assay: SPR, mAb captured, 25C
T3 construct: also called monkey NPR1 complexed to ANP
Method: as §1

hNPR1-mFc:hBNP complex [4] = biological target: T4, hNPR1-mFc:hBNP complex (human, UniProt P16860 103-134); assay: SPR, mAb captured, 25C
T4 construct: also called human NPR1 complexed to BNP
Method: as §1

mfNPR1-mFc:hBNP complex = biological target: T5, mfNPR1-mFc:hBNP complex (monkey; human, UniProt P16860 103-134); assay: SPR, mAb captured, 25C
T5 construct: also called monkey NPR1 complexed to BNP
Method: as §1

mfNPR1-mFc [5] = biological target: T1, mfNPR1-mFc; assay: SPR, mAb captured, 37C
Method: as §1

[6] = biological target: T2, hNPR1-mFc:hANP or hNPR1-hFc:hANP complex; assay: SPR, mAb captured, 37C
Method: as §1

mfNPR1-mFc:hANP complex [7] = biological target: T3, mfNPR1-mFc:hANP complex; assay: SPR, mAb captured, 37C
Method: as §1

hNPR1-mFc:hBNP complex [8] = biological target: T4, hNPR1-mFc:hBNP complex; assay: SPR, mAb captured, 37C
Method: as §1

B1: mAb22035 (antibody, human IgG4, V domains shown)
VH: EVQLVESGGGLVQPGRSLRLSCAASGFTFDDYAMHWVRQAPGKGLEWVSGISWNSGTIGYADSVKGRFTMSRDNAKNSLYLQMNSLRPEDTALYYCAKDMGVSLALWGAFDIWGQGTMVTVSS
VL: DIQMTQSPSSLSASVGDKVTITCRASQNIRTYLNWYQQKPGKAPKVLISTASSLQSGVPSRFSGSGSGTDFTLTISSLQPEDFAVFYCQQSFGIPRTFGQGTKVEIK
100 nM Ag Bound (RU) (mfNPR1-mFc [1]): 231 RU | Kd (mfNPR1-mFc [1]): 0.229 nM | koff (mfNPR1-mFc [1]): 5.57e-05 s⁻¹ | kon (mfNPR1-mFc [1]): 244000 M⁻¹ s⁻¹ | t½ (mfNPR1-mFc [1]): 3.45 h | 100 nM Ag Bound (RU) [2]: 186 RU | Kd [2]: 0.434 nM | koff [2]: 7.78e-05 s⁻¹ | kon [2]: 179000 M⁻¹ s⁻¹ | t½ [2]: 2.47 h | 100 nM Ag Bound (RU) (mfNPR1-mFc:hANP complex [3]): 227 RU | Kd (mfNPR1-mFc:hANP complex [3]): 0.246 nM | koff (mfNPR1-mFc:hANP complex [3]): 4.66e-05 s⁻¹ | kon (mfNPR1-mFc:hANP complex [3]): 189000 M⁻¹ s⁻¹ | t½ (mfNPR1-mFc:hANP complex [3]): 4.13 h | 100 nM Ag Bound (RU) (hNPR1-mFc:hBNP complex [4]): 194 RU | Kd (hNPR1-mFc:hBNP complex [4]): 0.508 nM | koff (hNPR1-mFc:hBNP complex [4]): 8.7e-05 s⁻¹ | kon (hNPR1-mFc:hBNP complex [4]): 171000 M⁻¹ s⁻¹ | t½ (hNPR1-mFc:hBNP complex [4]): 2.21 h | 100 nM Ag Bound (RU) (mfNPR1-mFc:hBNP complex): 231 RU | Kd (mfNPR1-mFc:hBNP complex): 0.3 nM | koff (mfNPR1-mFc:hBNP complex): 6.13e-05 s⁻¹ | kon (mfNPR1-mFc:hBNP complex): 205000 M⁻¹ s⁻¹ | t½ (mfNPR1-mFc:hBNP complex): 3.14 h | 100 nM Ag Bound (RU) (mfNPR1-mFc [5]): 291 RU | Kd (mfNPR1-mFc [5]): 0.184 nM | koff (mfNPR1-mFc [5]): 8.44e-05 s⁻¹ | kon (mfNPR1-mFc [5]): 459000 M⁻¹ s⁻¹ | t½ (mfNPR1-mFc [5]): 2.28 h | 100 nM Ag Bound (RU) [6]: 237 RU | Kd [6]: 0.508 nM | koff [6]: 0.000114 s⁻¹ | kon [6]: 225000 M⁻¹ s⁻¹ | t½ [6]: 1.68 h | 100 nM Ag Bound (RU) (mfNPR1-mFc:hANP complex [7]): 283 RU | Kd (mfNPR1-mFc:hANP complex [7]): 0.302 nM | koff (mfNPR1-mFc:hANP complex [7]): 7.7e-05 s⁻¹ | kon (mfNPR1-mFc:hANP complex [7]): 255000 M⁻¹ s⁻¹ | t½ (mfNPR1-mFc:hANP complex [7]): 2.5 h | 100 nM Ag Bound (RU) (hNPR1-mFc:hBNP complex [8]): 243 RU | Kd (hNPR1-mFc:hBNP complex [8]): 0.553 nM | koff (hNPR1-mFc:hBNP complex [8]): 0.000128 s⁻¹ | kon (hNPR1-mFc:hBNP complex [8]): 232000 M⁻¹ s⁻¹ | t½ (hNPR1-mFc:hBNP complex [8]): 1.5 h

B2: mAb22809 (antibody, human IgG4, V domains shown)
VH: QLQLRESGPGLVKPSETLSLTCTVSGGSINDNSFFWDWIRQTPGRGLEWIGNIFFDGNTYYTPSLKSRVIISVDMSQNQFSLRLTSVTAADTALYYCARHKRSMTAWGFFDYWGQGTLVTVSS
VL: DIQMTQSPSSLSASVGDRVTITCRASKRINTYLNWYQQKPGKAPKVLIYSASNLQSGVPSRFSGSGSGTDFTLTINSLQPEDFATYFCQQSFSAPPITFGQGTRLEIK
100 nM Ag Bound (RU) (mfNPR1-mFc [1]): 6 RU | binding result (mfNPR1-mFc [1]): no binding (tested: 100 nM) | 100 nM Ag Bound (RU) [2]: 53 RU | Kd [2]: 4.94 nM | koff [2]: 0.000193 s⁻¹ | kon [2]: 39200 M⁻¹ s⁻¹ | t½ [2]: 0.995 h | 100 nM Ag Bound (RU) (mfNPR1-mFc:hANP complex [3]): 86 RU | Kd (mfNPR1-mFc:hANP complex [3]): 3.88 nM | koff (mfNPR1-mFc:hANP complex [3]): 0.000173 s⁻¹ | kon (mfNPR1-mFc:hANP complex [3]): 44700 M⁻¹ s⁻¹ | t½ (mfNPR1-mFc:hANP complex [3]): 1.11 h | 100 nM Ag Bound (RU) (hNPR1-mFc:hBNP complex [4]): 51 RU | Kd (hNPR1-mFc:hBNP complex [4]): 6.72 nM | koff (hNPR1-mFc:hBNP complex [4]): 0.000221 s⁻¹ | kon (hNPR1-mFc:hBNP complex [4]): 32800 M⁻¹ s⁻¹ | t½ (hNPR1-mFc:hBNP complex [4]): 0.873 h | 100 nM Ag Bound (RU) (mfNPR1-mFc:hBNP complex): 80 RU | Kd (mfNPR1-mFc:hBNP complex): 3.85 nM | koff (mfNPR1-mFc:hBNP complex): 0.00016 s⁻¹ | kon (mfNPR1-mFc:hBNP complex): 41400 M⁻¹ s⁻¹ | t½ (mfNPR1-mFc:hBNP complex): 1.21 h | 100 nM Ag Bound (RU) (mfNPR1-mFc [5]): 8 RU | 100 nM Ag Bound (RU) [6]: 68 RU | Kd [6]: 3.29 nM | koff [6]: 0.000166 s⁻¹ | kon [6]: 50400 M⁻¹ s⁻¹ | t½ [6]: 1.16 h | 100 nM Ag Bound (RU) (mfNPR1-mFc:hANP complex [7]): 106 RU | Kd (mfNPR1-mFc:hANP complex [7]): 3.7 nM | koff (mfNPR1-mFc:hANP complex [7]): 0.000205 s⁻¹ | kon (mfNPR1-mFc:hANP complex [7]): 55500 M⁻¹ s⁻¹ | t½ (mfNPR1-mFc:hANP complex [7]): 0.937 h | 100 nM Ag Bound (RU) (hNPR1-mFc:hBNP complex [8]): 63 RU | Kd (hNPR1-mFc:hBNP complex [8]): 3.56 nM | koff (hNPR1-mFc:hBNP complex [8]): 0.000166 s⁻¹ | kon (hNPR1-mFc:hBNP complex [8]): 46500 M⁻¹ s⁻¹ | t½ (hNPR1-mFc:hBNP complex [8]): 1.16 h
